Laboratory results from the supplement of paper PMC10567573.

B1: ZNF649 (parent)
chain: DECEKAYFYMSCLVKHKRIHSREK
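Note: lentivirally expressed fusions sorted by FACS into six bins by GFP to DsRed ratio, PSI derived from sequencing read proportions per bin multiplied by bin number.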

Variants of: B1
Test: protein stability index of a GFP-peptide fusion (GPS, HEK-293T) (PSI 1-6); higher = more stable
Details: c terminus: a fixed tail appended
For DECEKSYFYMSCLVKHKRIHSREK, the protein stability index was 3.04.
DECEKAYGYMSCLVKHKRIHSREK gave a protein stability index of 4.02.
In the case of DECEKAYFYMSCFVKHKRIHSREK, the protein stability index is reported as 3.18.
Variant DECEFAYFYMSCLVKHKRIHSREK has a protein stability index of 1.67.
In the case of DEVEKAYFYMSCLVKHKRIHSREK, the protein stability index is reported as 2.55.
In the case of DECEKAYFYMSCLVKVKRIHSREK, the protein stability index is reported as 1.61.
Variant DECEKAYFYMSGLVKHKRIHSREK has a protein stability index of 3.33.
Variant DECEKAYFYMSCLVKHVRIHSREK has a protein stability index of 2.19.
DECEKAYFYMSCLVKHKREHSREK gave a protein stability index of 3.93.
With DESEKAYFYMSCLVKHKRIHSREK the protein stability index was 2.53.
DECEKAYFYMSCLVKHKRIHMREK gave a protein stability index of 2.13.
Work on DECEKAYFYMSCLSKHKRIHSREK yielded a protein stability index of 3.65.
DECEEAYFYMSCLVKHKRIHSREK gave a protein stability index of 2.95.
Work on DECEKAYFYMSCLVKTKRIHSREK yielded a protein stability index of 2.56.
Work on DECEKAYFYMSCLVKHKRIHSHEK yielded a protein stability index of 2.39.
DECEKAYFYESCLVKHKRIHSREK gave a protein stability index of 3.92.
In the case of DECEKAYFYMSCLVKHKRRHSREK, the protein stability index is reported as 3.19.
DECEKAPFYMSCLVKHKRIHSREK gave a protein stability index of 3.54.
For DECEKAYFYMSCLVKHKRIHSRPK, the protein stability index was 2.1.
DICEKAYFYMSCLVKHKRIHSREK gave a protein stability index of 1.71.
DECEKAYFYMSCNVKHKRIHSREK showed a protein stability index of 3.65.
Work on DECEKAYFYMSCLVKHKRIHSRDK yielded a protein stability index of 2.81.
For DECEKAYFYMSCQVKHKRIHSREK, the protein stability index was 2.99.
In the case of DECEKAYFYMSCLVKHTRIHSREK, the protein stability index is reported as 2.27.
In the case of DECEKAYFYMSCLVKHKRYHSREK, the protein stability index is reported as 2.34.
DECEKAYFYMLCLVKHKRIHSREK gave a protein stability index of 1.74.
In the case of DECEKAYFYMSCLVKHKRISSREK, the protein stability index is reported as 2.37.
DECEKAYFYMSCLVKHKRIHSRKK gave a protein stability index of 2.7.
For DECEKAYDYMSCLVKHKRIHSREK, the protein stability index was 3.88.
DTCEKAYFYMSCLVKHKRIHSREK gave a protein stability index of 3.17.
DECEKAYFDMSCLVKHKRIHSREK gave a protein stability index of 4.51.
For DECEKADFYMSCLVKHKRIHSREK, the protein stability index was 4.07.
For DECEKAYLYMSCLVKHKRIHSREK, the protein stability index was 2.48.
For DECEKAYFYMSCWVKHKRIHSREK, the protein stability index was 3.19.
DECEKAYFYMPCLVKHKRIHSREK gave a protein stability index of 3.24.
For DECEKAYFYMSTLVKHKRIHSREK, the protein stability index was 3.83.
Variant DECEKAYFYMSCLVKSKRIHSREK has a protein stability index of 3.06.
For DECEKAYNYMSCLVKHKRIHSREK, the protein stability index was 3.7.
DECEKAYFYMSCLVKAKRIHSREK gave a protein stability index of 2.51.
DECEKAYFYMSCLVKHKYIHSREK gave a protein stability index of 2.52.
Work on DECEKAYFYMSCRVKHKRIHSREK yielded a protein stability index of 2.15.
DECEKAYFYMSDLVKHKRIHSREK gave a protein stability index of 4.16.
DECEKAYFYMSCLVKHKRIHSTEK showed a protein stability index of 2.38.
DECEKAYFYMSCLVKHKRIPSREK gave a protein stability index of 3.15.
DECEKAYFYMSCLVKHKRIHQREK gave a protein stability index of 2.95.
With HECEKAYFYMSCLVKHKRIHSREK the protein stability index was 2.61.
In the case of DECEKGYFYMSCLVKHKRIHSREK, the protein stability index is reported as 2.75.
Work on DECPKAYFYMSCLVKHKRIHSREK yielded a protein stability index of 2.45.
For DNCEKAYFYMSCLVKHKRIHSREK, the protein stability index was 2.62.
Work on DECEMAYFYMSCLVKHKRIHSREK yielded a protein stability index of 2.34.
For DECEKAYFYMSCLVVHKRIHSREK, the protein stability index was 1.75.
With DECEKAYFCMSCLVKHKRIHSREK the protein stability index was 2.81.
DECEKAYFYMSCLVKHKRIHAREK showed a protein stability index of 2.48.
For PECEKAYFYMSCLVKHKRIHSREK, the protein stability index was 2.44.
With DECEKAYFYRSCLVKHKRIHSREK the protein stability index was 3.32.
DECEKAYSYMSCLVKHKRIHSREK showed a protein stability index of 3.78.
In the case of DECEKAYFYMSRLVKHKRIHSREK, the protein stability index is reported as 2.96.
Work on DECEKAYFYMSCLNKHKRIHSREK yielded a protein stability index of 3.53.
Variant DECEKAYFYMSCLVHHKRIHSREK has a protein stability index of 2.45.
For DECEKAYFYMSCLVKKKRIHSREK, the protein stability index was 2.65.
For DECEKAYFVMSCLVKHKRIHSREK, the protein stability index was 2.54.
In the case of DECEKAYFYMSCLVKHKRIHHREK, the protein stability index is reported as 2.53.
EECEKAYFYMSCLVKHKRIHSREK gave a protein stability index of 2.47.
DECEKAYFYMSCLVKHKVIHSREK gave a protein stability index of 2.36.
In the case of DEAEKAYFYMSCLVKHKRIHSREK, the protein stability index is reported as 3.06.
Work on DEDEKAYFYMSCLVKHKRIHSREK yielded a protein stability index of 2.98.
With DECEKAYFYMSMLVKHKRIHSREK the protein stability index was 2.95.
Work on DEWEKAYFYMSCLVKHKRIHSREK yielded a protein stability index of 1.97.
For DECEKAYFYMSCLVKHKRIHDREK, the protein stability index was 2.61.
In the case of DECEKAYWYMSCLVKHKRIHSREK, the protein stability index is reported as 3.07.
DECEKAYFYMSCLVKHKRAHSREK showed a protein stability index of 3.26.
DECEKAYPYMSCLVKHKRIHSREK showed a protein stability index of 4.1.
DECEKAYFYMSCLVKIKRIHSREK gave a protein stability index of 1.69.
For DECEKAYFYMSCLVKHKRIHSREG, the protein stability index was 2.31.
DECEKAYFYMSCLVKHKRIVSREK gave a protein stability index of 2.24.
DECEKAYFYMSCLVKHKRIHIREK gave a protein stability index of 2.61.
Work on DECEKAYFYMSCLVPHKRIHSREK yielded a protein stability index of 2.02.
In the case of DECEKAYFYMSCLVKHKRIHSDEK, the protein stability index is reported as 2.8.
DEQEKAYFYMSCLVKHKRIHSREK showed a protein stability index of 3.11.
With DECEKAYFYMSCLVKHKRIASREK the protein stability index was 2.22.
In the case of DECEKAYFYMNCLVKHKRIHSREK, the protein stability index is reported as 2.97.
Work on DECEKAYFYMSCLVQHKRIHSREK yielded a protein stability index of 2.3.
DPCEKAYFYMSCLVKHKRIHSREK showed a protein stability index of 2.21.
With DECEKAYFYMSKLVKHKRIHSREK the protein stability index was 2.8.
For DECEKAYFYMSCLQKHKRIHSREK, the protein stability index was 3.05.
Variant DACEKAYFYMSCLVKHKRIHSREK has a protein stability index of 2.17.
DECEKAYFPMSCLVKHKRIHSREK gave a protein stability index of 3.78.
Variant DECENAYFYMSCLVKHKRIHSREK has a protein stability index of 2.84.
DECEKAYFYMSCLVKHKRIHSREM gave a protein stability index of 1.97.
Variant DECEKAYFYMSCLVKHKRDHSREK has a protein stability index of 3.59.
Variant DECEKAYFYMSCLVKHKRIHSEEK has a protein stability index of 2.89.
DECEKAYFYMSCLVKHKRIHSAEK gave a protein stability index of 2.54.
Variant DECEVAYFYMSCLVKHKRIHSREK has a protein stability index of 1.81.
In the case of DECEKAYFYMSCLVKHKRIHSREL, the protein stability index is reported as 1.75.
